Data taken from publication PMC9165289, “Theranostic PSMA ligands with optimized backbones for intraoperative multimodal imaging and photodynamic therapy of prostate cancer” (European Journal of Nuclear Medicine and Molecular Imaging, 2022).
Read-outs that look alike come from different tables or passages of the source.

Legend:
[1] = system: LS174T-PSMA and LS174T wildtype xenografts; assay: PSMA-N064 blocking experiment, ex vivo biodistribution; type: in vivo, BALB/c nude mice; conditions: 0.3 nmol, 10 MBq, i.v., 2 h p.i., n=5
Procedure: (§1) All animal experiments were approved by the institutional Animal Welfare Committee of the Radboud University Medical Center and were conducted in accordance to the guidelines of the Revised Dutch Act on Animal Experimentation. Animal experiments were performed in 8–10 weeks old male BALB/c nude mice (Janvier). The mice were housed in individually ventilated cages (Blue line IVC, 3–5 mice per cage), under standard non-sterile conditions with cage enrichment present. There was free access to chlorophyll-free animal chow (Sniff Voer) and water. Mice were subcutaneously inoculated with 3.0 × 10^6 LS174T-PSMA cells in the right flank and 1.5 × 10^6 LS174T WT cells in the left flank (diluted in 200-µl RPMI 1640 medium). When xenografts were approximately 0.5 cm^3 (10–14 days after injection), mice were block-randomized into groups based on tumor size. The researchers were not blinded for the experimental groups.
Five mice per group were intravenously injected with either 0.1 nmol PSMA-N064, 0.3 nmol PSMA-N064, 0.1 nmol PSMA-N064 + 10 nmol unlabeled PSMA-617 (100x excess) or PSMA-617. Ligands were labeled with 10 MBq ^111In in PBS+0.5% (w/v) BSA. For the ex vivo biodistribution four groups (one for each experimental condition) of five mice were included. Two hours p.i., all mice from all groups were euthanized by CO2/O2-asphyxiation and relevant tissues were dissected, weighed and measured for radioactivity in a gamma-counter (2480 WIZARD^2 Automatic Gamma Counter, PerkinElmer).

LS174T-PSMA cells [2] = system: LS174T-PSMA cells; parameters: method as in PMID 33408764; conditions: head-to-head comparison; cited from earlier work
PSMA [3] = system: PSMA; parameters: method as in PMID 27789722, PMID 29651565; conditions: reported in the literature; cited from earlier work
PSMA [4] = system: PSMA; parameters: method as in PMID 27789722, PMID 29651565; conditions: reported in the literature; cited from earlier work; remark: listed apart in the source
LS174T-PSMA cells [5] = assay: in vitro binding and internalization assay; type: cell-based, human; conditions: for PSMA-specific membrane binding and internalization: corrected for non-specific binding (2-PMPA)
Procedure: The binding and internalization characteristics of the ligands were determined using LS174T-PSMA cells. Cells were cultured to confluency in 6-well plates followed by incubation with 50,000 counts per minute of ^111In-labeled ligand (0.1–0.25 pmol/well) in 1-ml RPMI + 0.5% BSA (37 °C, 2 h). Non-specific binding was determined by coincubation with 2(phosphonomethyl)-pentane-1,5-dioic acid (2-PMPA, 21.57 µM). PSMA-specific binding was defined as total binding minus the non-specific binding. To retrieve the membrane-bound fraction, cells were washed twice with PBS and incubated for 10 min at 0 °C with acid buffer (154-mM NaCl, 0.1 M acetic acid, pH 2.6). After incubation, the membrane-bound fraction was collected. Then, cells were washed and lysed with 0.1 M NaOH, and the cell lysate (intracellular activity) was collected. Intracellular and membrane-bound activity fractions were measured in a gamma-counter (2480 WIZARD^2 Automatic Gamma Counter, PerkinElmer).

[6] = ex vivo biodistribution of 111In-labeled ligands; parameters: species or system BALB/c nude mice; conditions: male, BALB/c nude, mouse, iv, 0.3 nmol, total radioactivity, 2 h p.i.; for tissue uptake at 2 h: 10 MBq/mouse, i.v.
Procedure: as §1
(§2) Mice were intravenously injected with 0.3 nmol PSMA ligand, labeled with 10 MBq ^111In (molar activity 33.3 MBq/nmol) in PBS + 0.5% (w/v) BSA. For the ex vivo biodistribution, five groups (one group for each ligand) of four mice were included. Two hours p.i., all mice were euthanized by CO2/O2-asphyxiation. For two mice of each group (2 mice/ligand), background-subtracted fluorescence images were acquired with the IVIS imaging system (Xenogen VivoVision IVIS Lumina II, PerkinElmer), with a 640-nm excitation filter and a Cy5.5 emission filter and an acquisition time of 10 s. Next, µSPECT/CT imaging was performed in the same two mice per group, with a 1.0-mm diameter pinhole mouse collimator tube (U-SPECT II, MILabs). Mice were scanned for 30 min followed by a CT scan for anatomical reference (spatial resolution 160 μm, 615 μA, 65 kV). MILabs reconstruction software was used to reconstruct the µSPECT/CT scans, via an ordered-subset expectation maximization algorithm, energy windows 154–188 keV and 220–270 keV, 3 iterations, 16 subsets, and voxel size of 0.75 mm. SPECT/CT maximum intensity projections (MIPs) were created using the Inveon Research Workplace software (Siemens Preclinical Solutions, version 4.1). NIR fluorescence images were analyzed using Living Image software (PerkinElmer, version 4.2). After imaging, relevant tissues were dissected, weighed, and measured for radioactivity in a gamma-counter (2480 WIZARD^2 Automatic Gamma Counter, PerkinElmer). In addition, a blocking experiment with PSMA-N064 and PSMA-617 was performed. Full experimental procedures and results can be found in the supplementary data (Page 5, Supplementary Fig. 3).

[7] = system: LS174T-PSMA and LS174T wildtype xenografts; assay: ex vivo biodistribution of 111In-labeled ligands; parameters: species or system BALB/c nude mice; conditions: 0.3 nmol, 2 h p.i.
Procedure: as §1, §2

[8] = system: LS174T-PSMA and LS174T wildtype xenografts; assay: µSPECT/CT and NIR fluorescence imaging; type: in vivo, BALB/c nude mice; conditions: 0.3 nmol, 10 MBq/mouse, 2 h p.i.
From the text: as §2, with “SPECT/CT maximum intensity projections (MIPs) were created using the Inveon Research Workplace software (Siemens Preclinical Solutions, version 4.1).” left out, “In addition, a blocking experiment with PSMA-N064 and PSMA-617 was performed. Full experimental procedures and results can be found in the supplementary data (Page 5, Supplementary Fig. 3).” left out

[9] = LS174T wildtype tumor, n=4, read-out: Biodistribution Tumor- LS174T
[10] = LS174T-PSMA tumor, n=4, read-out: Biodistribution Tumor+ LS174T-PSMA
[11] = adrenals, n=4, read-out: Biodistribution Adrenals
[12] = blood, n=4, read-out: Biodistribution Blood
[13] = bone marrow, n=4, read-out: Biodistribution Bone marrow
[14] = bone, n=4, read-out: Biodistribution Bone
[15] = duodenum, n=4, read-out: Biodistribution Duodenum
[16] = heart, n=4, read-out: Biodistribution Heart
[17] = kidney, n=4, read-out: Biodistribution Kidney
[18] = liver, n=4, read-out: Biodistribution Liver
[19] = lung, n=4, read-out: Biodistribution Lung
[20] = muscle, n=4, read-out: Biodistribution Muscle
[21] = pancreas, n=4, read-out: Biodistribution Pancreas
[22] = prostate, n=4, read-out: Biodistribution Prostate
[23] = salivary glands, n=4, read-out: Biodistribution Salivary glands
[24] = spleen, n=4, read-out: Biodistribution Spleen
[25] = stomach, n=4, read-out: Biodistribution Stomach
[26] = tumor (LS174T-PSMA xenograft) / blood, read-out: Tumor/Blood ratio
[27] = tumor (LS174T-PSMA xenograft) / kidney, read-out: Tumor/Kidney ratio
[28] = tumor (LS174T-PSMA xenograft) / liver, read-out: Tumor/Liver ratio
[29] = tumor (LS174T-PSMA xenograft) / spleen, read-out: Tumor/Spleen ratio

| Compound | PSMA-specific membrane binding and internalization (LS174T-PSMA cells [5]) | tissue uptake at 2 h [6, 9] | tissue uptake at 2 h [6, 10] | tissue uptake at 2 h [6, 11] | tissue uptake at 2 h [6, 12] | tissue uptake at 2 h [6, 13] | tissue uptake at 2 h [6, 14] | tissue uptake at 2 h [6, 15] | tissue uptake at 2 h [6, 16] | tissue uptake at 2 h [6, 17] | tissue uptake at 2 h [6, 18] | tissue uptake at 2 h [6, 19] | tissue uptake at 2 h [6, 20] | tissue uptake at 2 h [6, 21] | tissue uptake at 2 h [6, 22] | tissue uptake at 2 h [6, 23] | tissue uptake at 2 h [6, 24] | tissue uptake at 2 h [6, 25] | tissue to tissue ratio at 2 h [6, 26] | tissue to tissue ratio at 2 h [6, 27] | also measured |
| --- | --- | --- | --- | --- | --- | --- | --- | --- | --- | --- | --- | --- | --- | --- | --- | --- | --- | --- | --- | --- | --- |
| O=C(O)CC[C@H](NC(=O)N[C@@H](CCCCNC(=O)[C@H](Cc1ccc2ccccc2c1)NC(=O)[C@H]1CC[C@H](CNC(=O)CN2CCN(CC(=O)O)CCN(CC(=O)O)CCN(CC(=O)O)CC2)CC1)C(=O)O)C(=O)O [PSMA-617] |  |  |  |  |  |  |  |  |  |  |  |  |  |  |  |  |  |  |  |  | Biodistribution Tumor+ LS174T-PSMA [1]: 19 ± 2 %ID/g; internalization ratio (LS174T-PSMA cells [2]): 46% |
| PSMA-1007 |  |  |  |  |  |  |  |  |  |  |  |  |  |  |  |  |  |  |  |  | IC50 (PSMA [3]): 4.2 ± 0.5 nM; internalization ratio (PSMA [4]): 67% |
| C[Si](C)(CCC[N+](CCCS(=O)(=O)[O-])(CCCS(=O)(=O)O)CCCS(=O)(=O)O)O[Si]1(O[Si](C)(C)CCC[N+](CCCS(=O)(=O)[O-])(CCCS(=O)(=O)O)CCCS(=O)(=O)O)n2c3c4ccccc4c2N=C2N=C(N=c4c5c(OCCCOC(=O)NCCCCCC(=O)NCCCC[C@H](NC(=O)CN6CCN(CC(=O)O)CCN(CC(=O)O)CCN(CC(=O)O)CC6)C(=O)NCCCC[C@H](NC(=O)[C@H](CCC(=O)O)NC(=O)c6cccnc6)C(=O)NCc6ccc(C(=O)N[C@@H](Cc7ccc8ccccc8c7)C(=O)NCCCC[C@H](NC(=O)N[C@@H](CCC(=O)O)C(=O)O)C(=O)O)cc6)cccc5c(n41)=NC1=NC(=N3)c3ccccc31)c1ccccc12 [PSMA-N02] | highest membrane-bound and internalized fraction | 0.6 ± 0.2 %ID/g | 23 ± 2 %ID/g | 1.2 ± 0.2 %ID/g | 0.5 ± 0.01 %ID/g | 0.1 ± 0.1 %ID/g | 0.5 ± 0.04 %ID/g | 0.4 ± 0.05 %ID/g | 0.4 ± 0.05 %ID/g | 99 ± 12 %ID/g | 1.1 ± 0.1 %ID/g | 1 ± 0.3 %ID/g | 0.2 ± 0.04 %ID/g | 0.3 ± 0.05 %ID/g | 0.5 ± 0.1 %ID/g | 0.6 ± 0.1 %ID/g | 1.6 ± 0.2 %ID/g | 0.5 ± 0.1 %ID/g | 43.1 ± 4.1 | 0.3 ± 0.01 | internalization percentage (percentage of cell-associated ligand that was internalized) (LS174T-PSMA cells [5]; 37 °C, 2 h): 73–90%; tissue to tissue ratio at 2 h [6, 28]: 21.6 ± 1.6; tissue to tissue ratio at 2 h [6, 29]: 14.3 ± 2.5; Tumor/Negative tumor ratio [7]: 42.2 ± 16.4; Tumor/Prostate ratio [7]: 46.9 ± 13.8; Tumor/Salivary gland ratio [7]: 39.2 ± 3.7 |
| CC(=O)N[C@@H](CCCCNC(=O)CCCCCNC(=O)[C@H](CCC(=O)O)NC(=O)[C@H](CCC(=O)O)NC(=O)[C@H](Cc1ccccc1)NC(=O)[C@H](CCCCNC(=O)CCCCCNC(=O)OCCCOc1cccc2c3n4c(c12)=NC1=NC(=Nc2c5ccccc5c(n2[Si]4(O[Si](C)(C)CCC[N+](CCCS(=O)(=O)[O-])(CCCS(=O)(=O)O)CCCS(=O)(=O)O)O[Si](C)(C)CCC[N+](CCCS(=O)(=O)[O-])(CCCS(=O)(=O)O)CCCS(=O)(=O)O)N=C2N=C(N=3)c3ccccc32)c2ccccc21)NC(=O)CCC(C(=O)O)N1CCN(CC(=O)O)CCN(CC(=O)O)CCN(CC(=O)O)CC1)C(=O)O (some centres unmarked) [PSMA-N064inc, reference compound] | no binding and internalization | 0.4 ± 0.1 %ID/g | 0.5 ± 0.2 %ID/g | 0.7 ± 0.6 %ID/g | 0.3 ± 0.2 %ID/g | 0.1 ± 0.03 %ID/g | 0.2 ± 0.1 %ID/g | 0.2 ± 0.04 %ID/g | 0.3 ± 0.1 %ID/g | 47 ± 6 %ID/g | 0.6 ± 0.1 %ID/g | 0.3 ± 0.1 %ID/g | 0.1 ± 0.1 %ID/g | 0.1 ± 0.04 %ID/g | 0.6 ± 0.7 %ID/g | 0.3 ± 0.05 %ID/g | 0.2 ± 0.04 %ID/g | 0.4 ± 0.1 %ID/g | 1.5 ± 0.6 | 0.01 ± 0.003 | renal ligand accumulation on images [8]: lowest; tissue to tissue ratio at 2 h [6, 28]: 0.7 ± 0.2; tissue to tissue ratio at 2 h [6, 29]: 2.1 ± 0.5; Tumor/Negative tumor ratio [7]: 1.1 ± 0.5; Tumor/Prostate ratio [7]: 1.3 ± 0.9; Tumor/Salivary gland ratio [7]: 1.6 ± 0.5 |
